Assay results as given in patent US20240327530A1 (ICHNOS SCIENCES, published 2024).

Target: T1, Human IL-1RAP, membrane-bound on human cells (HaCaT, dermal fibroblasts, neutrophils, PBMC, whole blood) (human, UniProt Q9NPH3 21-570)
T1 construct: Endogenous protein on cells
T1 sequence: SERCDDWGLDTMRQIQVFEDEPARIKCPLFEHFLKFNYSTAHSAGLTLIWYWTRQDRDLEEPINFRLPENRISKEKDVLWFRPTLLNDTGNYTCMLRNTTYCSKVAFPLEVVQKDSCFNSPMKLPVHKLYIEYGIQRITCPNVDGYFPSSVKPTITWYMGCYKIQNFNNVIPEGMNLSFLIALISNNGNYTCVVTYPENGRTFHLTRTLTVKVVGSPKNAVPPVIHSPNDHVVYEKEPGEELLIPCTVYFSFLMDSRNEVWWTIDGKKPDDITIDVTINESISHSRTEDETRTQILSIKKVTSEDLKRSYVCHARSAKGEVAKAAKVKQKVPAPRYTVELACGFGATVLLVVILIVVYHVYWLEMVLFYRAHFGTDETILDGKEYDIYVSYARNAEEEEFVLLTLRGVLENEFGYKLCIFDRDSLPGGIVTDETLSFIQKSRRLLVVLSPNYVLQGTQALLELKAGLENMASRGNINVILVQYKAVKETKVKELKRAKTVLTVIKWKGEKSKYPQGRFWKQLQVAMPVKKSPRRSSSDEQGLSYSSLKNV
Experiment: flow cytometry on human neutrophils, anti-human IgG PE-Cyanine7, relative geometric MFI (isotype subtracted)
Protocol: A dose-response of anti-human IL-1RAP_candidate_1 (●) or Isotype control_5 (▪) was incubated with various cell lines and cell types. Bound antibodies were detected with a monoclonal anti-human IgG PE-Cyanine7 secondary antibody. The graphs show the nonlinear sigmoidal regression binding curves (Relative Geometric Mean Fluorescence Intensity) for each cell lines. Each data point is a measurement for a given cell line. Multiple independent experiments were performed across several donors (HaCaT and HaCaT IL-1RAP KO: 4 and 3 independent experiments; Human Dermal Fibroblasts: 2 independent experiments—total of 5 donors; Human Neutrophil: 2 experiments—total of 6 donors; Cyno Dermal Fibroblasts: 2 independent experiment—total of 4 donors).
In brief, cells were harvested, counted, and plated at 50,000 cells/well in a 96-well round-bottom plate. […] The cells were gated based on size on FSC vs SSC and analyzed for PE-Cyanine7-geometric mean (geomean) fluorescence intensity using FLOWJO® software. Finally, relative geomean fluorescence intensity was calculated by subtracting fluorescence of anti-human IL-1RAP_candidate_1 per fluorescence of Isotype control_5. […]

B1: Anti-IL-1RAP-C8-RecC-ES-IgG1LALA (antibody, V domains shown)
VH: QVQLVQSGAEVKKPGSSVKVSCKASGSPAEPYAIQWVRQAPGQGLEWMGYIIPSLGGYDYAQKFQGRVTITADESTSTAYMELSSLRSEDTAVYYCARGQTLYESGRQFDIWGQGTLVTVSS
VL: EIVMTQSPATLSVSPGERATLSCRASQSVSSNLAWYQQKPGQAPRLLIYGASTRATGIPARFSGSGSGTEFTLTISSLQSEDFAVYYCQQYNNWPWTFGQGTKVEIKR
notes: also called ISB 880-C8-recC-ES
  EC50 (read off the curve): ~0.2 µg/mL
